Experimental data published in patent publication US20130209464A1.

Target: HIV-1 MN strain envelope (Env) on Env-pseudotyped virus (HIV-1 MN strain) (UniProt P05877)
Assay: cell-based or functional assay

Sequence of HIV-1 MN strain envelope (Env) on Env-pseudotyped virus (HIV-1 MN strain) (P05877 32-856 limits assumed): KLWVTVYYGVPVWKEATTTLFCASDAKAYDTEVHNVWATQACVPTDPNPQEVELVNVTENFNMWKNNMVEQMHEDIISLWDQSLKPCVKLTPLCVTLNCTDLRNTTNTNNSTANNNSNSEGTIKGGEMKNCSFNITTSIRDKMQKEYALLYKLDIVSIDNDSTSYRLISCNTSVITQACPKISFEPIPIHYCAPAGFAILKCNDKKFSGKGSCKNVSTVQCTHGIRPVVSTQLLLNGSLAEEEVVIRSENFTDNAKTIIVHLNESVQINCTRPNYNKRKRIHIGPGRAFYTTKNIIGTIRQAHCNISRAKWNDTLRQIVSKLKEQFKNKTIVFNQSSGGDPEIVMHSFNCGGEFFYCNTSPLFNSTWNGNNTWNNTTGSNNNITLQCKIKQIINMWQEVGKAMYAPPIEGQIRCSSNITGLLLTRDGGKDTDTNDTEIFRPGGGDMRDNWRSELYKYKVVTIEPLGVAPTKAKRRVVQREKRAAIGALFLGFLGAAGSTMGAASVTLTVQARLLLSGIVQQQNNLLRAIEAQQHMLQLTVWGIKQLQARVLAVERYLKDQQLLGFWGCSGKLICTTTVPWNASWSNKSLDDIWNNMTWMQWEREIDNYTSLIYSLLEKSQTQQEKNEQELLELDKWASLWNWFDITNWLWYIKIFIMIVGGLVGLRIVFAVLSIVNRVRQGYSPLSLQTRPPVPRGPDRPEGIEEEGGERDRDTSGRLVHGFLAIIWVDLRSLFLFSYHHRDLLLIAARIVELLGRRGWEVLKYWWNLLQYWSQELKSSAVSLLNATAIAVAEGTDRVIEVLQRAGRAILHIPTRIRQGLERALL

## native actinohivin (AH) polypeptide (from UniProt Q9KWN0 47-160)
  50% inhibitory concentration (IC50), neutralization of Env-pseudotyped virus, TZM-bl luciferase reporter assay: 0.5 µg/mL
